According to paper PMC12034804:

B1: recombinant human Siglec-10 Fc chimera (Fc fusion)
chain: MDGRFWIRVQESVMVPEGLCISVPCSFSYPRQDWTGSTPAYGYWFKAVTETTKGAPVATNHQSREVEMSTRGRFQLTGDPAKGNCSLVIRDAQMQDESQYFFRVERGSYVRYNFMNDGFFLKVTALTQKPDVYIPETLEPGQPVTVICVFNWAFEECPPPSFSWTGAALSSQGTKPTTSHFSVLSFTPRPQDHNTDLTCHVDFSRKGVSAQRTVRLRVAYAPRDLVISISRDNTPALEPQPQGNVPYLEAQKGQFLRLLCAADSQPPATLSWVLQNRVLSSSHPWGPRPLGLELPGVKAGDSGRYTCRAENRLGSQQRALDLSVQYPPENLRVMVSQANRTVLENLGNGTSLPVLEGQSLCLVCVTHSSPPARLSWTQRGQVLSPSQPSDPGVLELPRVQVEHEGEFTCHARHPLGSQHVSLSLSVHYSPKLLGPSCSWEAEGLHCSCSSQASPAPSLRWWLGEELLEGNSSQDSFEVTPSSAGPWANSSLSLHGGLSSGLRLRCEAWNVHGAQSGSILQLPDKKGLISTAFSN

Columns and labels:
[1] = target: eGFP-CD24 (CD24 fused with eGFP at the N-terminus), on CHO-CD24 cells (UniProt P25063)
[2] = target: enhanced green fluorescent protein (eGFP) [GFP: P42212]; assay: BLI; ForteBio sensors loaded with 20 nM solutions, baseline in PBS with 1 mg/ml BSA, single concentration of analyte, 1000 rpm, 1:1 binding model, Kd from kd : ka; the section's heading calls it isothermal titration calorimetry; who was on the sensor is not told
[3] = target: eGFP-CD24 (CD24 fused with eGFP at the N-terminus), on CHO-CD24 cells (UniProt P25063); remark: listed apart in the source
[4] = target: de-N-glycosylated eGFP-CD24, on CHO-CD24 cells treated with nbGFP-PNGF (UniProt P25063); assay: flow cytometry on cells; CHO-CD24 cells incubated with 5 nM PNGF or nbGFP-PNGF for 2 hours, with or without 50 µM P-3Fax-Neu5Ac; bound enzyme dissociated in acidic buffer (100 mM Glycine, 150 mM NaCl, pH 3.0, 0.1% Tween-20) for 2 min; then human Siglec-10 Fc chimera, biotin anti-human IgG Fc, Cy5-streptavidin

Row | Molecule | de-N-glycosylation of eGFP-CD24 on CHO cells (western blot, 2 h): concentration at which it is complete; 500 nM PNGF without the nanobody could not [1] [nM] | Kd [2] [nM] | phagocytosis of CHO-CD24 cells by mouse bone marrow-derived macrophages after treatment with nbGFP-PNGF, against control (flow cytometry) [3] [fold] | percent of the CD24/Siglec-10 interaction that is due to the N-glycans (lost on de-N-glycosylation) [4] [%]
1 | nbGFP-PNGF (Peptide-N-glycosidase F fused to an N-terminal nanobody against eGFP) | 5 | 5.58 | – | –
2 | B1 | – | – | 0.5 | > 82
